Measured values: patent US10064928B2, “Peptides and combination of peptides for use in immunotherapy against CLL and other cancers” (IMMATICS BIOTECHNOLOGIES GMBH, priority 2015, dated 2018)

The substances below were run against HLA-A*02:01 (Homo sapiens, UniProt P04439, D140Y/D185E/D98H/E176V/E277Q/G131W/G231S/I119V/I121R/I166T/I218V/L300P/L318F/N151K/N90K/P208A/P217A/Q86G/Q94H/R138H/R169H/T345S) (assay: MHC binding assay (UV-ligand exchange, beta2m ELISA)). Settings: binding of HLA-class I restricted peptides to HLA-A*02:01, β2m ELISA.
How it was run: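 Exchange yield, UV-ligand exchange: 100-fold diluted samples on streptavidin plates, 1 h at 37 °C; HRP anti-β2m 1 h at 37 °C; TMB read at 450 nm.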

Row | Substance | Peptide Exchange (MHC class I binding score, peptide exchange yield)
1 | 361 (ILQEFESKL; listed as Homo sapiens) [compound 361] | “+++” (≥50 = +++)
2 | 362 (ILTELGGFEV; listed as Homo sapiens) [compound 362] | “+++” (≥50 = +++)
3 | 363 (ITTEVVNELYV; listed as Homo sapiens) [compound 363] | “+++” (≥50 = +++)
4 | 364 (KMDWIFHTI; listed as Homo sapiens) [compound 364] | “+++” (≥50 = +++)
5 | 365 (LISPLLLPV; listed as Homo sapiens) [compound 365] | “+++” (≥50 = +++)
6 | 367 (NLWSLVAKV; listed as Homo sapiens) [compound 367] | “+++” (≥50 = +++)
7 | 369 (RLLDLENSLLGL; listed as Homo sapiens) [compound 369] | “+++” (≥50 = +++)
8 | 370 (SIFASPESV; listed as Homo sapiens) [compound 370] | “+++” (≥50 = +++)
9 | 371 (SLADDSVLERL; listed as Homo sapiens) [compound 371] | “+++” (≥50 = +++)
10 | 372 (SLFGPLPGPGPALV; listed as Homo sapiens) [compound 372] | “+++” (≥50 = +++)
11 | 373 (TLLADQGEIRV; listed as Homo sapiens) [compound 373] | “++” (≥20% = ++)
12 | 374 (VLSVITEEL; listed as Homo sapiens) [compound 374] | “+++” (≥50 = +++)
13 | 375 (VLWFKPVEL; listed as Homo sapiens) [compound 375] | “+++” (≥50 = +++)
14 | 376 (VLYNQRVEEI; listed as Homo sapiens) [compound 376] | “+++” (≥50 = +++)
15 | 377 (VVDGTCVAV; listed as Homo sapiens) [compound 377] | “+++” (≥50 = +++)
16 | 378 (YILGKFFAL; listed as Homo sapiens) [compound 378] | “+++” (≥50 = +++)
17 | 379 (YLAELVTPIL; listed as Homo sapiens) [compound 379] | “+++” (≥50 = +++)
18 | 381 (YLLEENKIKL; listed as Homo sapiens) [compound 381] | “+++” (≥50 = +++)
19 | 382 (YLLPLLQRL; listed as Homo sapiens) [compound 382] | “++++” (≥75% = ++++)
20 | 383 (YLLREWVNL; listed as Homo sapiens) [compound 383] | “++++” (≥75% = ++++)
21 | 384 (YMIGSEVGNYL; listed as Homo sapiens) [compound 384] | “++++” (≥75% = ++++)
22 | 385 (YTIPLAIKL; listed as Homo sapiens) [compound 385] | “+++” (≥50 = +++)
